Assay results reported in publication PMC7547722, “A versatile soluble siglec scaffold for sensitive and quantitative detection of glycan ligands” (Nature Communications, 2020).
Several values for one entry are separate records, joined by “and”; a condition that tells them apart may be missing. Equal values may be shown once.

How the values were obtained:
[1] = test system: peripheral blood immune cells; assay: Comparison of 2-step and pre-complexed Siglec-Fc binding, flow cytometry (Figure 3e-g); format: cell-based, human; settings: Figure 3g
[2] = test system: U937 cells; assay: Flow cytometry, Siglec-Fc pre-complexed with Strep-Tactin, streptavidin or anti-human IgG1; format: cell-based; settings: U937; Strep-Tactin-AF647; replicates, Fig. 2
Experimental: (§1) Strep-Tactin-AF647 (0.55 μg/mL, 0.57 pmol), streptavidin (Biolegend), or anti-human igG1 (Biolegend) was added to Siglec supernatant (50 μL) or purified Siglec and allowed to sit at 4 °C for 15 min. After, the pre-complexed solution was added to cells in a 96-well U-bottom plate for 30 min at 4 °C. After, 200 μL of flow buffer (HBSS, 0.1% BSA, 5 mM EDTA) was added and the plate was spun down at 300 rcf for 5 min. The cells were resuspended in 200 μL of flow buffer and processed through the flow cytometer.
(§2) Flow cytometry was performed on a BD LSRFortessa™ X-20 cell analyzer using BD FACSDiva Software Version 8.0.1 and data was processed using FlowJo LLC. Version 9.9.6 and Graphpad Prism 8. The live, single cell populations were gated out with two gates to obtain the median fluorescence intensity (MFI), which indicates binding of the Siglec-Fc-secondary complex to the cell surface. Control cells that were incubated with Strep-Tactin-AF647 (0.55 μg/mL, 0.57 pmol) was used to determine the baseline fluorescence. Number of cells (# cells) plotted indicates percentage of max (% max).

[3] = test system: A549 cells; assay: Flow cytometry, pre-complexed Siglec-Fc binding; format: cell-based; settings: Strep-Tactin-AF647, replicates
Experimental: as §1, §2

[4] = test system: HEK293T cells; assay: Flow cytometry, pre-complexed Siglec-Fc binding; format: cell-based; settings: HEK; Strep-Tactin-AF647; replicates
Experimental: as §1, §2

[5] = test system: HuH7 cells; assay: Flow cytometry, pre-complexed Siglec-Fc binding; format: cell-based; settings: Strep-Tactin-AF647, replicates
Experimental: as §1, §2

[6] = test system: Jurkat cells; assay: Flow cytometry, pre-complexed Siglec-Fc binding; format: cell-based; settings: Strep-Tactin-AF647, replicates
Experimental: as §1, §2

[7] = test system: K562 cells; assay: Flow cytometry, pre-complexed Siglec-Fc binding; format: cell-based; settings: Strep-Tactin-AF647, replicates
Experimental: as §1, §2

[8] = test system: BT549; assay: Flow cytometry, pre-complexed Siglec-Fc binding to breast cancer cell line; format: cell-based; settings: Strep-Tactin-AF647, replicates
Experimental: as §1, §2

[9] = test system: HS578T; assay: as above; format: cell-based; settings: Strep-Tactin-AF647, replicates
Experimental: as §1, §2

[10] = test system: MCF7; assay: as above; format: cell-based; settings: Strep-Tactin-AF647, replicates
Experimental: as §1, §2

[11] = test system: MDA-MB-231; assay: as above; format: cell-based; settings: Strep-Tactin-AF647, replicates
Experimental: as §1, §2

[12] = test system: MDA-MB-468; assay: as above; format: cell-based; settings: Strep-Tactin-AF647, replicates
Experimental: as §1, §2

[13] = test system: T47D; assay: as above; format: cell-based; settings: Strep-Tactin-AF647, replicates
Experimental: as §1, §2

[14] = test system: ZR-75-1; assay: as above; format: cell-based; settings: Strep-Tactin-AF647, replicates
Experimental: as §1, §2

[15] = test system: basophils (CCR3+); assay: Siglec ligands on peripheral blood immune cells, flow cytometry; format: cell-based, human; design: key: median fluorescence intensity (MFI) of Siglec-Fc complex binding; settings: replicate values
Experimental: (§3) Siglec supernatant (50 μL) or purified Siglec was incubated with cells in a 96-well U-bottom plate for 30 min at 4 °C. Following the incubation, 200 μL of flow buffer (HBSS, 0.1% BSA, 5 mM EDTA) was added and the plate was spun down at 300 rcf for 5 min. Strep-Tactin-AF647 (0.55 μg/mL, 50 μL, 0.57 pmol), streptavidin (Biolegend), or anti-human IgG1 (Biolegend) was added to the cells and incubated for 30 min at 4 °C. After, 200 μL of flow buffer (HBSS, 0.1% BSA, 5 mM EDTA) was added and the plate was spun down at 300 rcf for 5 min. The cells were resuspended in 200 μL of flow buffer and processed through the flow cytometer.
as §1
(§4) For human splenocytes, the sample was homogenized in media through a 40 µm filter (Corning) under sterile conditions. Samples were centrifuged at 300 rcf for 5 min. The resulting pellet from the spleen sample and whole human blood were treated with RBC lysis buffer (7 min) and centrifuged at 300 rcf and the RBC lysis was repeated twice more until no RBC remained in the pellet. Samples were treated with human Fc-receptor blocking agent (TruStain FX, Biolegend) in flow buffer (HBSS, 0.1% BSA, 5 mM EDTA). For analysis, the following cocktail was used: hSig8 (PerCP/Cy5.5, clone 7C9, Biolegend cat. no. 347108, 1:200), hCD123 (PE/Cy7, clone 6H6, Biolegend cat. no. 306010, 1:200), hCD19 (PE, clone SJ25C1, Biolegend cat. no. 363004, 1:200), hCD3 (FITC, BD Pharmingen cat. no. 555332, 1:50), hCD14 (BV605, clone M5E2, BD Horizon cat. no. 564056, 1:200), hCD15 (BUV395, clone HI98, BD Horizon cat. no. 563872, 1:200), hCD56 (BV510, clone NCAM16.2, BD Horizon cat. no. 563041, 1:200). For human peripheral blood samples, we additionally used hHLA-DR (APC-Cy7, clone L243, Biolegend cat. no. 307618, 1:200). Pre-complexed Siglec-Fc/Strep-Tactin-AF647 (described above) was added to the antibody cocktail, added to cells, and allowed to stain at 4 °C for 45 min. The cells were then centrifuged at 300 rcf for 5 min and resuspended in flow buffer containing 1 µg/mL propidium iodide prior to analysis by flow cytometry.
as §2

[16] = test system: eosinophils (Siglec-8+); assay: as above; format: cell-based, human; design: key: median fluorescence intensity (MFI) of Siglec-Fc complex binding; settings: replicate values
Experimental: as §3, §1, §4, §2

[17] = test system: monocytes (CD14+); assay: as above; format: cell-based, human; design: key: median fluorescence intensity (MFI) of Siglec-Fc complex binding; settings: replicate values
Experimental: as §3, §1, §4, §2

[18] = test system: B-cells (CD19+); assay: as above; format: cell-based, human; settings: replicate values
Experimental: as §4, §2

[19] = test system: NK cells (CD56+); assay: as above; format: cell-based, human; settings: replicate values
Experimental: as §4, §2

[20] = test system: T-cells (CD3+); assay: as above; format: cell-based, human; settings: replicate values
Experimental: as §4, §2

[21] = test system: cDCs (CD123dim/HLA-DR+); assay: as above; format: cell-based, human; settings: cDC; replicate values
Experimental: as §4, §2

[22] = test system: neutrophils (CD15+); assay: as above; format: cell-based, human; settings: replicate values
Experimental: as §4, §2

[23] = test system: pDCs (CD123high/HLA-DR+); assay: as above; format: cell-based, human; settings: pDC; replicate values
Experimental: as §4, §2

[24] = test system: neutrophils (CD15+), human splenocytes; assay: Siglec-Fc (CD22-Fc V1/V2, with or without Fc receptor block) binding to splenocytes, flow cytometry; format: cell-based; settings: Suppl Fig 12; three replicate columns
Experimental: as §4, §2

[25] = test system: B-cells (CD19+), human splenocytes; assay: Siglec-Fc binding to splenocytes, flow cytometry; format: cell-based; settings: Suppl Fig 12; three replicate columns
Experimental: as §4, §2

[26] = test system: NK cells (CD56+), human splenocytes; assay: Siglec-Fc binding to splenocytes, flow cytometry; format: cell-based; settings: Suppl Fig 12; three replicate columns
Experimental: as §4, §2

[27] = test system: T-cells (CD3+), human splenocytes; assay: Siglec-Fc binding to splenocytes, flow cytometry; format: cell-based; settings: Suppl Fig 12; three replicate columns
Experimental: as §4, §2

[28] = test system: monocytes (CD14+), human splenocytes; assay: Siglec-Fc binding to splenocytes, flow cytometry; format: cell-based; settings: Suppl Fig 12; three replicate columns
Experimental: as §4, §2

Row | Molecule | binding of pre-complexed Siglec-Fc (MFI) [2] | binding of pre-complexed Siglec-Fc (MFI) [3] | binding of pre-complexed Siglec-Fc (MFI) [4] | binding of pre-complexed Siglec-Fc (MFI) [5] | binding of pre-complexed Siglec-Fc (MFI) [6] | binding of pre-complexed Siglec-Fc (MFI) [7] | binding of pre-complexed Siglec-Fc (MFI) [8] | binding of pre-complexed Siglec-Fc (MFI) [9] | binding of pre-complexed Siglec-Fc (MFI) [10] | binding of pre-complexed Siglec-Fc (MFI) [11] | binding of pre-complexed Siglec-Fc (MFI) [12] | binding of pre-complexed Siglec-Fc (MFI) [13] | binding of pre-complexed Siglec-Fc (MFI) [14] | Siglec-Fc binding (Figure 3d) [15] | Siglec-Fc binding (Figure 3d) [16] | Siglec-Fc binding (Figure 3d) [17] | Siglec-Fc binding (Figure 3d) [18] | Siglec-Fc binding (Figure 3d) [19] | Siglec-Fc binding (Figure 3d) [20] | Siglec-Fc binding (Figure 3d) [21] | further results
1 | Siglec-9-Fc R120A (protein, UniProt Q9Y336 18-348, looked up, variant R120A, extracellular domain fused to human IgG1 Fc) extracellular domain: QTSKLLTMQSSVTVQEGLCVHVPCSFSYPSHGWIYPGPVVHGYWFREGANTDQDAPVATNNPARAVWEETRDRFHLLGDPHTKNCTLSIRDARRSDAGRYFFAMEKGSIKWNYKHHRLSVNVTALTHRPNILIPGTLESGCPQNLTCSVPWACEQGTPPMISWIGTSVSPLDPSTTRSSVLTLIPQPQDHGTSLTCQVTFPGASVTTNKTVHLNVSYPPQNLTMTVFQGDGTVSTVLGNGSSLSLPEGQSLRLVCAVDAVDSNPPARLSLSWRGLTLCPSQPSNPGVLELPWVHLRDAAEFTCRAQNPLGSQQVYLNVSLQSKATSGVTQG | – | – | – | – | – | – | – | – | – | – | – | – | – | – | – | – | – | – | – | – | Siglec-9-Fc Binding ([1]; 2-Step): 43.3 and 45.1 and 40.9; Siglec-9-Fc Binding ([1]; Precomplex): 42 and 53.2 and 47.5
2 | Sig-3 R119A: CD33-Fc essential arginine mutant (protein, UniProt P20138 18-259, looked up, variant R119A, extracellular domain fused to human IgG1 Fc, CD33-Fc essential arginine mutant) extracellular domain: DPNFWLQVQESVTVQEGLCVLVPCTFFHPIPYYDKNSPVHGYWFREGAIISRDSPVATNKLDQEVQEETQGRFRLLGDPSRNNCSLSIVDARRRDNGSYFFAMERGSTKYSYKSPQLSVHVTDLTHRPKILIPGTLEPGHSKNLTCSVSWACEQGTPPIFSWLSAAPTSLGPRTTHSSVLIITPRPQDHGTNLTCQVKFAGAGVTTERTIQLNVTYVPQNPTTGIFPGDGSGKQETRAGVVH | 103 and 139 and 125 | 196 and 195 and 188 | 86.5 and 94.1 and 92.2 | 85.3 and 88.8 and 87.9 | 101 and 105 and 109 | 73.5 and 79.6 and 81.1 | 140 and 148 and 151 | 127 (2×) and 130 | 107 and 105 and 113 | 133 (2×) and 138 | 85.3 and 88 and 88.8 | 88.8 and 95.2 (2×) | 212 and 223 and 240 | 73.2 and 10.3 and 39.8 | 15.4 and -50.1 and 11.6 | 74.5 and -10.3 and 64.2 | 147 and 5.13 and 27 | 3.81 and -14.1 and 12.8 | 11.6 and -14.1 and 8.98 | 28.2 and -2.85 and 34.7 | Siglec-Fc binding (Figure 3d) [22]: 27 and -33.4 and 14.1; Siglec-Fc binding (Figure 3d) [23]: 43.6 and 23.1 and 53.9; Binding, Neutrophils [24]: 20.7 and 30.4 and 24.9; Binding, B-cells [25]: 24.9 and 27 and 31.3; Binding, NK [26]: 16.9 and 14.2 and 13.6; Binding, T-cells [27]: 9.87 and 7.5 and 8.87; Binding, Monocytes [28]: 22.5 and 51.6 and 43.8
3 | Sig-16 R120A: Siglec-16-Fc essential arginine mutant (protein, UniProt A6NMB1 17-434, looked up, variant R120A, extracellular domain fused to human IgG1 Fc, Siglec-16-Fc essential arginine mutant) extracellular domain: NKDPSYSLQVQRQVPVPEGLCVIVSCNLSYPRDGWDESTAAYGYWFKGRTSPKTGAPVATNNQSREVAMSTRDRFQLTGDPGKGSCSLVIRDAQREDEAWYFFAVERGSRVRHSFLSNAFFLKVTALTQKPDVYIPETLEPGQPVTVICVFNWAFKKCPAPSFSWTGAALSPRRTRPSTSHFSVLSFTPSPQDHDTDLTCHVDFSRKGVSAQRTVRLRVASLELQGNVIYLEVQKGQFLRLLCAADSQPPATLSWVLQDRVLSSSHPWGPRTLGLELPGVKAGDSGRYTCRAENRLGSQQRALDLSVQYPPENLRVMVSQANRTVLENLRNGTSLRVLEGQSLRLVCVTHSSPPARLSWTWGEQTVGPSQPSDPGVLQLPRVQMEHEGEFTCHARHPLGSQRVSLSFSVHCKSGPMTG | 90.2 and 97.8 and 102 | 103 (2×) and 108 | 70.6 and 77.5 and 78.9 | 131 and 130 and 128 | 74.2 and 80.5 and 83 | 80.4 and 84.2 and 88.7 | 124 and 130 and 128 | 116 and 119 and 110 | 102 | 111 and 118 and 117 | 81.8 and 84.5 and 83.4 | 75.5 and 80.8 and 81.8 | 171 and 183 and 144 | 82.2 and 51.9 and 97 | 41.1 and 56.9 and 14.4 | 46.2 and 59 and 12.8 | 32.1 and 52.6 and -2.57 | 38.5 and 45.7 and 13.8 | 25.7 and 12.5 and 15.5 | 66.8 and -25.7 and 30.8 | Siglec-Fc binding (Figure 3d) [22]: 44.9 and 39.4 and 8.1; Siglec-Fc binding (Figure 3d) [23]: 74.5 and -8.98 and 57.8; Binding, Neutrophils [24]: 16.1 and 20.7 and 14.4; Binding, B-cells [25]: 9.76 and 13.2 and 11.5; Binding, NK [26]: -1.72 and -0.57 and 2.3; Binding, T-cells [27]: -5.17 and -4.02 and -2.3; Binding, Monocytes [28]: 17.2 and 15.5 and 13.2
